Experimental data: US20210179728A1 (OSE IMMUNOTHERAPEUTICS, published 2021)
One block for each binder: values may come before it.

How the values were obtained:
[1] = target: T1, recombinant hSIRPa (Sino Biologicals, reference 11612-H08H) (human, UniProt P78324 31-370); assay: competition ELISA on coated SIRPa-His; competitor biotinylated CD47-Fc at 6 ug/ml, streptavidin-peroxidase [panel PD1]
T1 construct: also called SIRPa-His; human SIRPa-His; not shown: His tag (histidine tail)
Procedure: (§1) Method: For competitive ELISA assay, recombinant hSIRPa (Sino Biologicals, Beijing, China; reference 11612-H08H) was immobilized on plastic at 0.5 μg/ml in carbonate buffer (pH9.2).

PDL1Fc = target: T2, PDL1Fc (human, UniProt Q9NZQ7 19-238); assay: ELISA: modified antibody (concentration on the axis) captured on SIRPa-His, then PDL1Fc, detected with mouse anti-human PDL1 [panel PD1]
T2 construct: not shown: Fc; not specified
From the text: (§2) FIG. 24. Ligand binding assay with the different modified anti-SIRPa antibodies by ELISA.

[2] = target: T1, recombinant hSIRPa (Sino Biologicals, …); assay: ELISA on immobilized SIRPa-His, peroxidase anti-human IgG, DO 450nm [panel PD1]
Procedure: (§3) Method: For ELISA assay, recombinant hSIRPa (Sino Biologicals, Beijing, China; reference 11612-H08H) was immobilized on plastic at 0.5 μg/ml in carbonate buffer (pH9.2) and different modified anti-SIRPa antibodies were added to measure binding to SIRPa.

[3] = target: T1, recombinant hSIRPa (Sino Biologicals, …); assay: competition ELISA on coated SIRPa-His; competitor biotinylated CD47-Fc at 6 ug/ml, streptavidin-peroxidase [panel PDL1]
Procedure: as §1

PD1His = target: T3, PD1His (human, UniProt Q15116 25-170, limits assumed); assay: ELISA: modified antibody (concentration on the axis) captured on SIRPa-His, then PD1His, detected with mouse anti-His [panel PDL1]
T3 construct: not shown: His tag
From the text: as §2

[4] = target: T1, recombinant hSIRPa (Sino Biologicals, …); assay: competition ELISA on coated SIRPa-His; competitor biotinylated CD47-Fc at 6 ug/ml, streptavidin-peroxidase [panel 4-1BBL]
Procedure: as §1

[5] = target: T1, recombinant hSIRPa (Sino Biologicals, …); assay: ELISA on immobilized SIRPa-His, peroxidase anti-human IgG, DO 450nm [panel ICOSL]
Procedure: as §3

CD28Fc [6] = target: T4, CD28Fc (human, UniProt P10747 19-152, limits assumed); assay: ELISA: modified antibody on immobilized SIRPa-His, CD28Fc added and detected with mouse anti-human CD28
T4 construct: not shown: Fc; not specified
From the text: as §2

[7] = target: T1, recombinant hSIRPa (Sino Biologicals, …); assay: competition ELISA on immobilized SIRPa; competitor CD47Fc at 0.04 ug/ml, anti-human Fc detection
Procedure: as §1

[8] = target: T1, recombinant hSIRPa (Sino Biologicals, …); assay: SPR (Biacore); SIRPa-His immobilized on CM5 chip, antibody injected
Procedure: FIG. 2. Affinity analysis by Biacore of anti-SIRP antibodies on human SIRPa recombinant protein. SIRPa-His recombinant protein was immobilized onto a CM5 chip at 5 μg/ml (500 RU) and the indicated antibodies were added at different concentration.
Method: Recombinant hSIRPa (Sino Biologicals, Beijing, China; reference 11612-H08H) was immobilized into a CM5 sensor chip (GeHealthcare; France) at 5 μg/ml (500 RU) and antibodies were applied at different concentrations with a flow rate of 40 μl/min. Analysis was performed with a BIAcore 3000 (Biacore, GeHealthcare).

[9] = target: T1, recombinant hSIRPa (Sino Biologicals, …); assay: BLI (Blitz); SIRPa-His on Ni-NTA biosensor, antibody at 20 ug/ml, no SP-D [B, table A]
[10] = target: T1, recombinant hSIRPa (Sino Biologicals, …); assay: BLI (Blitz); SIRPa-His on Ni-NTA biosensor pre-incubated with SP-D at 100 ug/ml, then antibody at 20 ug/ml [B, table A]
Procedure: FIG. 6. […] SIRPa-His recombinant protein was immobilized onto a NINTA biosensor at 10 μg/ml and the anti-SIRPa antibody was added at 20 μg/ml (saturating concentration).
In a first step, Sirp-a (His) recombinant protein (Sino Biologicals, Beijing, China; reference 11612-H08H) was immobilized at 10 μg/ml by histidine tail into a Ni-NTA biosensor (Forte Bio; USA; reference 18-0029) for 30 seconds. […] Then, anti-SIRPa antibodies were associated at 20 μg/mL (saturating concentration) for 120 seconds. The dissociation of anti-SIRPa antibody was made in kinetics buffer for 120 seconds. Analysis data was made with the Blitz pro 1.2 software, which calculated association constant (ka) and dissociation constant (kd) and determined the affinity constant KD […].

CD28Fc [11] = target: T4, CD28Fc; assay: ELISA: modified antibody (concentration on the axis) captured on SIRPa-His, then CD28Fc, detected with mouse anti-human CD28 [panel ICOSL]
From the text: as §2

B3: modified anti-SIRPa HEFLB antibody with ECD of 4-1BBL on the heavy chain (antibody, human IgG4 S228P, kappa)
heavy: not shown
light: DVVMTQSPLSLPVTLGQPASISCRSSQSLVHSYGNTYLYWFQQRPGQSPRLLIYRVSNRFSGVPDRFSGSGSGTDFTLKISRVEAEDVGVYYCFQGTHVPYTFGGGTKVEIKRTVAAPSVFIFPPSDEQLKSGTASVVCLLNNFYPREAKVQWKVDNALQSGNSQESVTEQDSKDSTYSLSSTLTLSKADYEKHKVYACEVTHQGLSSPVTKSFNRGEC
notes: as m25, ECD of 4-1BBL; also called VHprot+VL (4-1BBL); VH-4-1BBL
IC50 (read off the curve) [4]: ~0.3 µg/mL

B4: modified anti-SIRPa HEFLB antibody with ECD of ICOSL on the heavy chain (antibody, human IgG4 S228P, kappa)
heavy: not shown
light: DVVMTQSPLSLPVTLGQPASISCRSSQSLVHSYGNTYLYWFQQRPGQSPRLLIYRVSNRFSGVPDRFSGSGSGTDFTLKISRVEAEDVGVYYCFQGTHVPYTFGGGTKVEIKRTVAAPSVFIFPPSDEQLKSGTASVVCLLNNFYPREAKVQWKVDNALQSGNSQESVTEQDSKDSTYSLSSTLTLSKADYEKHKVYACEVTHQGLSSPVTKSFNRGEC
notes: as m25, ECD of ICOSL; also called VHprot+VL (ICOSL); HEF-ICOSL + LB
EC50 (read off the curve) [5]: ~0.008 µg/mL | binding result (CD28Fc [6]): binds

B6: modified anti-SIRPa HEFLB antibody with ECD of ICOSL on the light chain (antibody, human IgG4 S228P, kappa)
heavy: not shown
light: DVVMTQSPLSLPVTLGQPASISCRSSQSLVHSYGNTYLYWFQQRPGQSPRLLIYRVSNRFSGVPDRFSGSGSGTDFTLKISRVEAEDVGVYYCFQGTHVPYTFGGGTKVEIKRTVAAPSVFIFPPSDEQLKSGTASVVCLLNNFYPREAKVQWKVDNALQSGNSQESVTEQDSKDSTYSLSSTLTLSKADYEKHKVYACEVTHQGLSSPVTKSFNRGECGGGGSGGGGSGGGGSDTQEKEVRAMVGSDVELSCACPEGSRFDLNDVYVYWQTSESKTVVTYHIPQNSSLENVDSRYRNRALMSPAGMLRGDFSLRLFNVTPQDEQKFHCLVLSQSLGFQEVLSVEVTLHVAANFSVPVVSAPHSPSQDELTFTCTSINGYPRPNVYWINKTDNSLLDQALQNDTVFLNMRGLYDVVSVLRIARTPSVNIGCCIENVLLQQNLTVGSQTGNDIGERDKITENPVSTGEKNAAT
notes: as m32, ECD of ICOSL; also called VH+VLprot (ICOSL); HEF + LB-ICOSL
EC50 (read off the curve) [5]: ~0.006 µg/mL | binding result (CD28Fc [11]): binds

More lines, now with the values ahead:

IC50 (read off the curve) [1]: ~0.2 µg/mL | binding result (PDL1Fc): binds | EC50 (read off the curve) [2]: ~0.008 µg/mL
B1: modified anti-SIRPa HEFLB antibody with ECD of PD1 on the heavy chain (antibody, human IgG4 S228P, kappa)
heavy: not shown
light: DVVMTQSPLSLPVTLGQPASISCRSSQSLVHSYGNTYLYWFQQRPGQSPRLLIYRVSNRFSGVPDRFSGSGSGTDFTLKISRVEAEDVGVYYCFQGTHVPYTFGGGTKVEIKRTVAAPSVFIFPPSDEQLKSGTASVVCLLNNFYPREAKVQWKVDNALQSGNSQESVTEQDSKDSTYSLSSTLTLSKADYEKHKVYACEVTHQGLSSPVTKSFNRGEC
notes: also called VHprot+VL (PD1); HEF-PD1 + LB

IC50 (read off the curve) [3]: ~0.3 µg/mL | binding result (PD1His): binds
B2: modified anti-SIRPa HEFLB antibody with ECD of PDL1 on the heavy chain (antibody, human IgG4 S228P, kappa)
heavy: not shown
light: DVVMTQSPLSLPVTLGQPASISCRSSQSLVHSYGNTYLYWFQQRPGQSPRLLIYRVSNRFSGVPDRFSGSGSGTDFTLKISRVEAEDVGVYYCFQGTHVPYTFGGGTKVEIKRTVAAPSVFIFPPSDEQLKSGTASVVCLLNNFYPREAKVQWKVDNALQSGNSQESVTEQDSKDSTYSLSSTLTLSKADYEKHKVYACEVTHQGLSSPVTKSFNRGEC
notes: as m25, ECD of PDL1; also called VHprot+VL (PDL1); VH-PDL1

IC50 (read off the curve) [7]: ~0.5 µg/mL | Kd [8]: 0.193 nM | koff [8]: 1.2e-05 s⁻¹ | kon [8]: 62300 M⁻¹ s⁻¹ | Kd [9]: 111 nM | koff [9]: 0.00176 s⁻¹ | kon [9]: 15800 M⁻¹ s⁻¹ | Kd [10]: 28.6 nM | koff [10]: 0.0109 s⁻¹ | kon [10]: 380000 M⁻¹ s⁻¹
B5: mouse antibody 18D5 (antibody, mouse IgG2b, kappa)
heavy: QVQLQQPGAELVRPGSSVKLSCKASGYTFTSYWVHWVKQRPIQGLEWIGNIDPSDSDTHYNQKFKDKASLTVDKSSSTAYMQLSSLTFEDSAVYYCVRGGTGTMAWFAYWGQGTLVTVSAAKTTPPSVYPLAPGCGDTTGSSVTLGCLVKGYFPESVTVTWNSGSLSSSVHTFPALLQSGLYTMSSSVTVPSSTWPSQTVTCSVAHPASSTTVDKKLEPSGPISTINPCPPCKECHKCPAPNLEGGPSVFIFPPNIKDVLMISLTPKVTCVVVDVSEDDPDVQISWFVNNVEVHTAQTQTHREDYNSTIRVVSTLPIQHQDWMSGKEFKCKVNNKDLPSPIERTISKIKGLVRAPQVYILPPPAEQLSRKDVSLTCLVVGFNPGDISVEWTSNGHTEENYKDTAPVLDSDGSYFIYSKLNMKTSKWEKTDSFSCNVRHEGLKNYYLKKTISRSPGK
light: DVVMTQTPLSLPVSLGDQASISCRSSQSLVHSYGNTYLYWYLQKPGQSPKLLIYRVSNRFSGVPDRFSGSGSGTDFTLKISRVEAEDLGVYFCFQGTHVPYTFGSGTKLEIKRADAAPTVSIFPPSSEQLTSGGASVVCFLNNFYPKDINVKWKIDGSERQNGVLNSWTDQDSKDSTYSMSSTLTLTKDEYERHNSYTCEATHKTSTSPIVKSFNRNEC
notes: mouse monoclonal anti-human SIRPa antibody; also called m18D5; m18D5 clone
